Drawing on US20110118447A1, this text covers fold affinity vs original and fold difference in affinity vs original for 15 molecules.

Positions count from the first letter of the chain named. Numbers in names are those of the source.

B1: C5A (XPA23) VH S30R (antibody, V domains shown)
VH: EVQLLESGGGLVQPGGSLRLSCAASGFTFRKYFMFWVRQAPGKGLEWVSVISPSGGMTRYADSVKGRFTISRDNSKNTLYLQMNSLRAEDTAVYYCARVGYGGNSDYWGQGTLVTVSS
VL: DIQMTQSPSSVSASVGDRLTIICRASQDINRWLAWYQQTPGNAPKLLIHSATSLQSGVPSRFSGSGSGTDFTLTINSLQPEDFATYYCQQADSFPLTFGGGTKVEIK
B2: C5A (XPA23) VH K31Y (antibody, V domains shown)
VH: B1 VH with R30S, K31Y
VL: B1 VL
B3: C5A (XPA23) VH K31R (antibody, V domains shown)
VH: B1 VH with R30S, K31R
VL: B1 VL
B4: C5A (XPA23) VH K31H (antibody, V domains shown)
VH: B1 VH with R30S, K31H
VL: B1 VL
B5: C5A (XPA23) VH S30T (antibody, V domains shown)
VH: B1 VH with R30T
VL: B1 VL
B6: C5A (XPA23) VH K31D (antibody, V domains shown)
VH: B1 VH with R30S, K31D
VL: B1 VL
B7: C5A (XPA23) VH S30N (antibody, V domains shown)
VH: B1 VH with R30N
VL: B1 VL
B8: C5A (XPA23) VL L96A (antibody, V domains shown)
VH: B1 VH with R30S
VL: B1 VL with L96A
B9: C5A (XPA23) VL L96W (antibody, V domains shown)
VH: B1 VH with R30S
VL: B1 VL with L96W
B10: C5A (XPA23) VL P95A (antibody, V domains shown)
VH: B1 VH with R30S
VL: B1 VL with P95A
B11: C5A (XPA23) VL F94L (antibody, V domains shown)
VH: B1 VH with R30S
VL: B1 VL with F94L
B12: C5A (XPA23) VL L96F (antibody, V domains shown)
VH: B1 VH with R30S
VL: B1 VL with L96F
B13: C5A (XPA23) VL F94P (antibody, V domains shown)
VH: B1 VH with R30S
VL: B1 VL with F94P
B14: C5A (XPA23) VL L96I (antibody, V domains shown)
VH: B1 VH with R30S
VL: B1 VL with L96I
B15: C5A (XPA23) VL P95F (antibody, V domains shown)
VH: B1 VH with R30S
VL: B1 VL with P95F

One assay concerns the target binding partner of C5A (XPA23). In words: Biacore.
Consider B1, for which the fold affinity vs original stood at 0.1 fold. In the case of B2, the fold affinity vs original is 0.04 fold. Still for that read-out and setting: the figure for B3 is 0.9 fold; for B4 it is 1.11 fold. Turning to B5, the fold difference in affinity vs original worked out at 0.06 fold. Consider B6, for which the fold affinity vs original was found to be 0.04 fold. In the case of B7, the fold affinity vs original turned out to be 0.15 fold.

The next assay deals with binding partner of C5A (XPA23). In words: Biacore K-off. Background: In SPR one partner is held on a chip, and binding of the other changes the refractive index at the surface.
Turning to B1, the fold difference in affinity vs original was 0.1 fold. On to B8, for which the fold difference in affinity vs original was determined as 0.26 fold. The same measure, in the same setting: with B9 the figure was 4.49 fold; with B2, 0.04 fold. Take B3: the fold difference in affinity vs original turned out to be 0.9 fold. B10: the fold difference in affinity vs original amounted to 3.83 fold. On to B11, for which the fold difference in affinity vs original was 0.55 fold. B12: the fold difference in affinity vs original came to 0.28 fold. For B13, the fold difference in affinity vs original is 0.17 fold. On to B14, for which the fold difference in affinity vs original amounted to 0.67 fold. For B4, the fold difference in affinity vs original was determined as 1.11 fold. With B5, the fold difference in affinity vs original came to 0.06 fold. As to B6, the fold difference in affinity vs original worked out at 0.04 fold. On the same count and under the same terms, with B7 the figure was 0.15 fold; with B15, 0.98 fold.
